Data: the DeepSol protein solubility set

experiment: soluble on expression in E. coli; label from the status in PepcDB or PDB records

Soluble on expression in E. coli, soluble:
MSLNNNDLVAKLWKLCDNLRDGGVSYQNYVNELASLLFLKMCKETGQEAEYLPEGYRWDDLKSRIGQEQLQFYRKMLVHLGEDDKKLVQAVFHNVSTTITEPKQITALVSNMDSLDWYNGAHGKSRDDFGDMYEGLLQKNANETKSGAGQYFTPRPLIKTIIHLLKPQPREVVQDPAAGTAGFLIEADRYVKSQTNDLDDLDGDTQDFQIHRAFIGLELVPGTRRLALMNCLLHDIEGNLDHGGAIRLGNTLGSDGENLPKAHIVATNPPFGSAAGTNITRTFVHPTSNKQLCFMQHIIETLHPGGRAAVVVPDNVLFEGGKGTDIRRDLMDKCHLHTILRLPTGIFYAQGVKTNVLFFTKGTVANPNQDKNCTDDVWVYDLRTNMPSFGKRTPFTDEHLQPFERVYGEDPHGLSPRTEGEWSFNAEETEVADSEENKNTDQHLATSRWRKFSREWIRTAKSDSLDISWLKDKDSIDADSLPEPDVLAAEAMGELVQALSELDALMRELGASDEADLQRQLLEEAFGGVKEEGGSHHHHHH
MSLSVADIAYVVFNHVDLLEAERFYTDFGLTVAYRNEFEVAFRPAMERSYCYVARKADKPGLVSIGLSAASQEDLVVAAQFPEASPIQAIERPGGGQVVRLTSPDGVNFELVHGIDVYPARPVRDALSINTGIVKTRHGQWQRPELEPASILRLGHVALLTGDFKTNAQWLRSRFGFMPSDVLFADAPENQVGAFFHCTGGNPWTDHHTLALFPSDGSRMHHCSFEIQDLDAQFLGNKWLASRGWKPGWGVGRHILGSQIFDYWFDPAGNLVEHFTDGDLIQAGAAPGMHPLDDDALAMWGPPLTASKFVAMAAREGHHHHHH
MRLIHLSDIHAGKNLGRVSRNEDVVYALNQVVDFCKENKPDLVLVAGDVFDKANPDNEAKEIIFDFFLKLHSLNIPSVVISGNHDSYEFMKSLKKLLQVIDVYVVPKPNLEECVLDVKGLKIACLPYPSERVLTRAGEDSKLSYAVLVEKAIKYLYEKVKDAPLKVLLSHLFIAGSKYTRTEREATITDYYAVEPSAIPEGFDYVALGHVHRYQRIEKAPTHVYYTGSLFQLDFSEAGQEKFFNFVELKEGEPPHVEAIKLSLKNPLHTFEINQENYAKELEKIKDVQGYIKVHLIVKDKTKMHLVAEKVKEALGEKLIKLELLTPEEAIKKRLEEEREIQKLNLLDLYRDYFKESYGREVPQEIIKTVSQLLEQVHES
MSLKILFSPSESKNENCTKNPIDENSFIFKELFPYRMEALKHYGEFIKNASLKNLQELFGIKNENEIDKFKHDLKQAPTQEAIMLYTGVSYEYLNFKALDKKSQAYILENTLIFSNLFGVVRANDTLPFYKFKQGAKIGNFTIEKFYKEHFSKALDEYLENEEILDLRAGFYDKFYTPKKKFYTYKFVKNGKVISHFAKAYRGILLSISAKNQVKNNKELLANLPSNLKLKEIQIKGLKEEIALEILDEGHHHHHH
SEPQEERETQVAAWLKKIFGDHPIPQYEVNPRTTEILHHLSERNRVRDRDVYLVIEDLKQKASEYESEAKYLQDLLMESVNFSPANLSSTGSRYLNALVDSAVALETKDTSLASFIPAVNDLTSDLFRTKSKSEEIKIELEKLEKNLTATLVLEKCLQEDVKKAELHLSTERAKVDNRRQNMDFLKAKSEEFRFGIKAAEEQLSARGMDASLSHQSLVALSEKLARLKQQTIPLKKKLESYLDLMPNPSLAQVKIEEAKRELDSIEAELTRRVDMMEL
MGHHHHHHHHHHSSGHIDDDDLHMDMHSGTFNPQDFAWQGLTLTPAAAIHIRELVAKQPGMVGVRLGVKQTGCAGFGYVLDSVSEPDKDDLLFEHDGAKLFVPLQAMPFIDGTEVDFVREGLNQIFKFHNPKAQNECGCGESFGV
MSTLRLLISDSYDPWFNLAVEECIFRQMPATQRVLFLWRNADTVVIGRAQNPWKECNTRRMEEDNVRLARRSSGGGAVFHDLGNTCFTFMAGKPEYDKTISTSIVLNALNALGVSAEASGRNDLVVKTVEGDRKVSGSAYRETKDRGFHHGTLLLNADLSRLANYLNPDKKKLAAKGITSVRSRVTNLTELLPGITHEQVCEAITEAFFAHYGERVEAEIISPNKTPDLPNFAETFARQSSWEWNFGQAPAFSHLLDERFTWGGVELHFDVEKGHITRAQVFTDSLNPAPLEALAGRLQGCLYRADMLQQECEALLVDFPEQEKELRELSAWMAGAVR
MSLSDTHIPLPERLRPRDLSEIIGQDHLLGEHAPLRQMIDQGHLPSIIFWGPPGVGKTTIALLLAQAVDRPFVSLSALNTGVKELREIIAESGDLLTPVVFIDEIHRFNKSQQDALLNAVEKGKITLIGATTENPSFEVNSALLSRCQVYTLNVLDSAAIQNLIDRAIDSDSFLKQRHIHIEEYEALIQFAAGDARKALNLIDLIASTFEPDQENIVTNAVTVKVAQQNIARYDKSGEQHYDIISAFIKSIRGSDPDAALYWMARMIKGGEDPVFIARRMLIAASEDIGNSNPNALLLAGECFRSVQAVGMPEARIILGQCAVYLATSPKSNSTYLAIDRALALAEKTANLPVPLHLRNAPTKLMKQQGYGADYLYPHHYPEHFVLQEYLPPELKGTKLYEFSRNKREVEGERLQQRRWQQDQEGHHHHHH

Soluble on expression in E. coli, not soluble:
IYQMAGLNEDADRNLWLAAFRDPYGKNNLDIASLKKSIAQWAKTQGKTIAPEKVDAVLKDRTGSAVCLTCGKNGKMKMPLKSLAWIQGSSSYSQAEVIEQTEETNSAEISETRTPEVPDVHTPEAQPHLNTQSDGTPTAYTEPAADSSPQVETPDQAASEPVDVLFSIDVIRQGNLRLGN
MGSDKIHHHHHHMKPITVLVSVDSNSVLMGARHFLNYFRDLVKEHNLEDTVDVLETGSMGIYPEGVIVSVLPDGVFYVVRNELDVRRIFEEHILKGRRVLDLEIPESQIKGTVEVEKVAEETRIVLKNVGEIDPTRIEEYIARDGYFALAKALQMEPGEIIEEIKRSGLRGRGGAGFPTGLKWEFTYKASADQKYVLCNADEGEPGTFKDRLIMEGDPHSLIEGMIIAGYAVGATKGYIYIRGEYHSSIEILKKAVEQAYEYGFLGENILGSGFNFDLKIRLGAGAYVAGEETALIESIEGKPARPRLKPPYPPTFGLFGKPTVVNNVETFVNVPRIIMNGAEWFKKFGTESSPGTKVFSLVGNVVRKGIVEVPMGVTVRDLIFKFGGGIEGGRKLKVVQTGGSAGTFIGPDKLDVPLDFDSYAKYGVSLGSGVILVADETHCVVDLALTVMRFFEHESCGKCTPCREGTRMIVNILERISRGEGKKEDLDTLREIARNAGETSFCGLGQSIPVPLLSIVDNFEEEFKAHIGADKCPVGVCEFKKKKEKKKIGVRKP
MGSDKIHHHHHHMQITLNIEHIRADTPLPPLFRVRQRWQTSPIADVAAVVYAELDKIGLAGHIQPGMRIAVTAGSRGISNIVTITAAAVAWLRAHGAEPFIVPAMGSHGGATAEGQVALLASLGITEQSVGCPIRATMDVVELGRIADGTPVYMDRFAAEADGVLVINRIKTHTSFKAPIESGLAKMCAVGLGKRQGAEIVHRTAVYGLKEQLVPMARMVVERGRVLAGLAILEDARDQTAAIVALPPAEIGGAGEAELLLRSKEMMARLPFDRLDVLVVDRIGKNISGTGMDTNVIGRLPIPGEPPPDRPVINVIVVLDLTPETHGNANGIGLADITTARLAAKIDFHATYVNVLTAGLVGLCKGGLPITLPTERDAVAMAIKTCGQPDLAAVRLVRIPDTLHLEELLVSEALLPEVTAHPNLELLGPAEWVLDCVEG
MVGKRNLPVISRNFDLSPGVLRFSASRLRLKKGEKKPKFTKDTSAKLPKLQRNGTKFALGHSKTVTLRKTLTPGTVLIVLAGRHKGKRVVFLKQLPQSGLLLVTGPHKINGFPLRRIGQAFVIATSLKVNVSGVKIPEHINDEYFKRKSTAQKTGKNIFASGKTEYTVSEQRKKDIKTVDAPILAAIKKHPEHKFLFGYLGTRFSLGKNQYPHKMQF
MVLFSEDHIQETRRRGRIEVICGSMFSGKTEELIRRMKRAKFARQRVEIFKPAIDTRYSEEDVVSHDSHSIASTPIDSSASILLFTSEIDVVGIDEAQFFDDGLIDVCRQLANNGIRVIIAGLDMDFKGNPFGPMPQLCAIADEVSKVHAICVKCGDLASFSHRTVKNDKQVLLGETAEYEPLCRECYLRARGEDGQKI
MAEFASAEFDRMLAEARSMLDAMRSGRSAPSDEEEVKGVGEAADGRVTVTVNSSGLLESVELNPRLLRLPAEEIGEHIVTAVNAALQDFRTKANQAVGAASVDLNALAASMQELQDQSVRQMAQIGQAFNELLTKLDGMR
MGSDKIHHHHHHLPRRYEDIYPSLPLLNSDGLEHMSAASLMSVRYFQAEPDRMPEDVFAEHHILLNLKAEPHRVQNTRDGEMRDFTFSKNDIIVTPAGMRSGWRWFAQSDVIVVTLLPDRVQRFAETELGLLLDPQQLGDLPLFSDADLCAAGVMLRDALEADDMSSAVMFEALSRVFLVKLLQRYGKRRPEDVALSSRFTSAHYNRVLAFIRANLERTITLDDLASEAGMSPSHFSRLFKDTVGTPPMQYVMAYRIEQSLAMMTDQGRALGDIALACGFADQAHFSRSFKQLMGATPRQHRSSLS
MGSDKIHHHHHHLASHHSLLNHQRHFERIGPDYRNGDSVSFLDIKHTFGLQHIRVGKWVNREESALAANLIFDSLADLANILAVPPELIGLRGSLRFAFGHGGQKGVQAHYSPAYRELALAKNAGAGALAHEFWHAFDHYIADKMFIDDSILDPYLSSLILSEQTTNTTRTNFSRANLFACASDNWLADKSIIAHPLNKKLSSLFKVTLLSANGQEPHDYVRRSIALDKQQRSHYFAKPTEMMARAFESCIEMYSQDYANISNPYLVNSTIDSPLAKHGAYPDAQHCREIYQAMMEYFEPLGLAFDKQNGQK
MGSDKIHHHHHHMFVWHEYENAAEAAQSLADAVADALQGALDEKGGAVLAVSGGRSPIAFFNALSQKDLDWKNVGITLADERIVPTNHADSNTGLVREYLLKNKAAAAVWIPMVEDGKTETELHPDAVVDYALKHYKQPDVLILGMGNDGHTASIFPKAPQFQTAIDGSAGVALVHTTPVTAPHERISMTLDAIAHTGHVFLAIQGEEKKAVFDQAAQGENREYPISLVLNHQGVNCHVFYAE
LLSKKEIITVNVAPGHHFNDVITVKGMADEEIDKTTCGDLKFHLTEKQENLEQKQIFLKNFDDGAGEDLYTSITISLSEALTGFEKFLTKTFDDRLLTLSVKPGRVVRPGDTIKIANEGWPILDNPHGRCGDLYVFVHIEFPPDNWFNEKSELLAIKTNLPSSSSCASHATVNTEDDSNLTNNETISNFRIIHTDDLPEGIRPFKPEAQDSAHQKARSSYCCIQ
MSAPKRPKFSVGDIVVNTLYGTVGTITDIQQIDGTFLYEINHGHSLFAEQALILLSEFAGDLWIAEEIEIELPFFLGEIVRVRDYGGHLFKIVGVRTEIYRYYGEGWEETIYELKRLTDGWEIEVHLEDIIPLADGEETSVTLVQDIVIAAPVKASLLLPPADSGEKGPSVDELLDMYNDYKALYEWFGDEQYQRMMETVVKRLRTISDHQDRN
MGFHPIELRIQILGLSAFGVDSKEIAAALDVPVRSVQRIIQRAKERGFDPATDPRVKMEYVEDAERSGRPKKGSKVMAAKSQAGSTSGSESVVAAGSEVGDGNRNSMPEAQA
METFKDRLVFLWKSEARQAKIASDIEMTIAGFSRIWNEGGLPKSETLKKIKQLKGCSIDWLLTGEGNPFPDEAPKKSLAYDTLGNEVDTDEFVFVPRYDIRAAAGYGQFVDHEEPVFTMAFRRHWIENYVTRDTKNLSVISVKGDSMEGVLNDGDSILVNHGENTPRDGLYVLRINENLLVKRLQIVPGGIINVISANEAYPAFEINLNDLTDDVEIIGRVEWFGRTI
